Tests used:
Fragment E = molecular target: T1, Fragment E (human, UniProt P02671 20-97; P02675 84-152; P02679 27-79, limits assumed); test: BLI Octet, Example 4, FIG. 5
T1 construct: domain: Fragment E
T1 sequence (looked up) 1: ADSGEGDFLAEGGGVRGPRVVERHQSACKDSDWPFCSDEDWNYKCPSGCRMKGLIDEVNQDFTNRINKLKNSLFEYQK
T1 sequence (looked up) 2: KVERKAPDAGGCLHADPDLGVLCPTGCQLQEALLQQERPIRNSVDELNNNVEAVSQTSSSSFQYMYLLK
T1 sequence (looked up) 3: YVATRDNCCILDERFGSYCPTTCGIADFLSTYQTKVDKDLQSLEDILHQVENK

[1] = molecular target: T2, Fragment E from fibrinogen (UniProt P02671 20-97; P02675 84-152; P02679 27-79, limits assumed); test: BLI Octet Red96e, biotinylated antibody on streptavidin tips
T2 construct: domain: Fragment E from fibrinogen; also called E (Fibrinogen)
T2 sequence (looked up) 1: T1 sequence (looked up) 1
T2 sequence (looked up) 2: T1 sequence (looked up) 2
T2 sequence (looked up) 3: T1 sequence (looked up) 3

Fragment E from fibrin = molecular target: T3, Fragment E from fibrin (UniProt P02671 36-97; P02675 84-152; P02679 27-88, limits assumed); test: as above
T3 construct: domain: Fragment E from fibrin; also called E (Fibrin)
T3 sequence (looked up) 1: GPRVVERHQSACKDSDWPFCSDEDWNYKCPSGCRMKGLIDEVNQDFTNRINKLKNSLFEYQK
T3 sequence (looked up) 2: T1 sequence (looked up) 2
T3 sequence (looked up) 3: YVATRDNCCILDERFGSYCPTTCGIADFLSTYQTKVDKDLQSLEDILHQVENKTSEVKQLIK

Fibrinogen Fragment D = molecular target: T4, Fibrinogen Fragment D (human, UniProt P02671 124-216; P02675 164-491; P02679 89-437, limits assumed); test: BLI Octet Red96e, biotinylated antibody on streptavidin tips; KD grade + = >=10^-8 M
T4 construct: domain: Fibrinogen Fragment D; Made in-house by digesting purified human fibrinogen with plasmin, then purified by SEC; also called fragment D from fibrinogen; D (Fibrinogen)
T4 sequence (looked up) 1: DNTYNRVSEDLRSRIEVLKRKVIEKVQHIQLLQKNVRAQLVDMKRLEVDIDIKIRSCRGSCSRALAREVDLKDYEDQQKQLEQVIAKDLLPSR
T4 sequence (looked up) 2: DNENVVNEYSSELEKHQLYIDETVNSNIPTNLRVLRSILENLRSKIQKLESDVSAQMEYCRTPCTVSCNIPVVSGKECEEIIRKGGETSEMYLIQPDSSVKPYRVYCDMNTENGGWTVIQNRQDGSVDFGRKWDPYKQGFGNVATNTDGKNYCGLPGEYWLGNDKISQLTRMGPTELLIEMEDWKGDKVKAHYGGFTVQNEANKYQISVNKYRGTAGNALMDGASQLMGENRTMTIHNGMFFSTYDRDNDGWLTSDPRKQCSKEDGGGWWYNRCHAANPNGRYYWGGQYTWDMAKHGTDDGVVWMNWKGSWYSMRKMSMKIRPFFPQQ
T4 sequence (looked up) 3: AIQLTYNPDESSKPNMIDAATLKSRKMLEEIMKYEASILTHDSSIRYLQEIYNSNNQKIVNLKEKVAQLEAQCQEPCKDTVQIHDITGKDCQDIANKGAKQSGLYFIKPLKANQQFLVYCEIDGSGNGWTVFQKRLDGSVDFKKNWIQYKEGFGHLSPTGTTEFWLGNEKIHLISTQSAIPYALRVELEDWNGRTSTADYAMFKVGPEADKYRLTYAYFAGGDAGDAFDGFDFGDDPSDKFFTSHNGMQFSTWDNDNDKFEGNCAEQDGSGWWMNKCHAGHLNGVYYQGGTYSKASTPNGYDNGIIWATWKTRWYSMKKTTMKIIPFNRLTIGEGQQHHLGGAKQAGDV
Protocol: (§1) The same set of mAbs were subjected to binding studies with fibrinogen, D-Dimer, and purified fibrin and fibrinogen fragments (see Table 2) using the BLI Octet Red96e system from Sartorius. KD was measured by loading biotinylated antibody samples on streptavidin BLI tips and introducing serial dilutions of prepared fragments. […] The experiments were conducted at room temperature and pressure.

Fibrinogen Fragment X = molecular target: T5, Fibrinogen Fragment X (human, UniProt P02671 20-238; P02675 73-491; P02679 27-437, limits assumed); test: as above
T5 construct: domain: Fibrinogen Fragment X; Made in-house by digesting purified human fibrinogen with plasmin, then purified by SEC; also called X (Fibrinogen)
T5 sequence (looked up) 1: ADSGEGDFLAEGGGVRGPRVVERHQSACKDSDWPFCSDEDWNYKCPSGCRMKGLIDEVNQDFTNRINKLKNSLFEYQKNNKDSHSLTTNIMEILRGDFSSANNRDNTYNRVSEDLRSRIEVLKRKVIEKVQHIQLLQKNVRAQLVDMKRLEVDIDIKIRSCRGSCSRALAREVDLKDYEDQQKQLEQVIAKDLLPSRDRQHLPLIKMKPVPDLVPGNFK
T5 sequence (looked up) 2: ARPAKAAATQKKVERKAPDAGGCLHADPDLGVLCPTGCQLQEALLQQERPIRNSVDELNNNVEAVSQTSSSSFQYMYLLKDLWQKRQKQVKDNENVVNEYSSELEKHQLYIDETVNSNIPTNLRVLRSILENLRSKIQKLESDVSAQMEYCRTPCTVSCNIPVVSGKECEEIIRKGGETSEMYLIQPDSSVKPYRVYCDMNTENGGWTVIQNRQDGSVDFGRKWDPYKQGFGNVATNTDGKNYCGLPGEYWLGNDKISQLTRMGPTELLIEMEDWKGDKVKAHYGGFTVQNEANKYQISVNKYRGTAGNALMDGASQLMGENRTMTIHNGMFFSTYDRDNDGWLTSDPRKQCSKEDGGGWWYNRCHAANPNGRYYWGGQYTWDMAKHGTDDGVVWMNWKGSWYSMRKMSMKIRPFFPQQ
T5 sequence (looked up) 3: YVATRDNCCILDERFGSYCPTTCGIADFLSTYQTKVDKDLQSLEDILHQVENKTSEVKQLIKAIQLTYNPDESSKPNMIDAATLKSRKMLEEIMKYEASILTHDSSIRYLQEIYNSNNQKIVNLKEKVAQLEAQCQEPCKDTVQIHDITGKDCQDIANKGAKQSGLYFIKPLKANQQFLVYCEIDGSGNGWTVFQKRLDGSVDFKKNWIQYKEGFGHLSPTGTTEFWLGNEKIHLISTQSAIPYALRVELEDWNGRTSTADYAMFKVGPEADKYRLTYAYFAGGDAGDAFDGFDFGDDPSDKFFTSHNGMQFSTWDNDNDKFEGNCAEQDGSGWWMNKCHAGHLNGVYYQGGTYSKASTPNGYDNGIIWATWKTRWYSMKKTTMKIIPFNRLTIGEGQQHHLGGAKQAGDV
Protocol: as §1

Fibrinogen Fragment Y = molecular target: T6, Fibrinogen Fragment Y (human, UniProt P02671 20-225; P02675 73-491; P02679 27-437, limits assumed); test: as above
T6 construct: domain: Fibrinogen Fragment Y; Made in-house by digesting purified human fibrinogen with plasmin, then purified by SEC; also called Y (Fibrinogen)
T6 sequence (looked up) 1: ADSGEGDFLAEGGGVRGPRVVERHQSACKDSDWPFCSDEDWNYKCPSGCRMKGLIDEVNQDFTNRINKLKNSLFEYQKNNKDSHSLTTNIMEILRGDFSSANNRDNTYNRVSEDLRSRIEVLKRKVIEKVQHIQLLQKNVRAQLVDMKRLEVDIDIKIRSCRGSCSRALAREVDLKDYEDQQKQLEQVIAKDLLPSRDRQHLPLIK
T6 sequence (looked up) 2: T5 sequence (looked up) 2
T6 sequence (looked up) 3: T5 sequence (looked up) 3
Protocol: as §1

- binding result (Fragment E): no binding
- binding result [1]: no binding
- binding result (Fragment E from fibrin): no binding
- KD (Fibrinogen Fragment D): ≥ 10 nM
- KD (Fibrinogen Fragment X): ≥ 10 nM
- KD (Fibrinogen Fragment Y): ≥ 10 nM
B1: recombinant antibody #12 (antibody, V domains shown)
VH: QVQLQQPGAEVVRPGASVKLSCKASGYSFTSYWIHWLKQGPHQGLEWIGRIDPDDSETHYNQKFKDKALLTVDKSSSTAYMQLRSLTSEDSAVYYCARTNWDAWFAYWGQGTLVTVSA
VL: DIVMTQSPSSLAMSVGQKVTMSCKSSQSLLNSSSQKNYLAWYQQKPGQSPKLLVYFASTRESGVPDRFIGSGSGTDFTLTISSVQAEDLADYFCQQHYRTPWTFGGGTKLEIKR
notes: The heavy chain is truncated after the murine IgG2a hinge and has no Fc; also called Ab#12; Ab#12 (Grifols)

— patent US20230082465A1 (Hoffmann-La Roche, published 2023)
